Experimental data published in PMC314469, “Protein Interaction Networks by Proteome Peptide Scanning” (PLoS Biology, 2004).

T1: Abp1 SH3 (ABP1_YEAST), P15891
T1 chain: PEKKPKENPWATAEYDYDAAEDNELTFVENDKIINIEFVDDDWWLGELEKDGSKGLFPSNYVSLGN


Target: T1, Abp1 SH3 (ABP1_YEAST), P15891
Test: SPOT array

normalised SPOT signal, Boehringer light units (BLU); mean over the file's lines of this peptide | Binder
44.7 | RNNAYLPEFEPNRP [YNL233W 771-784]
126 | RNLFDDAPATPPRP [YJL194W 14-27]
2940 | RELGLTRPISQKP [YHL009W-B 360-372]
62.6 | RKLTFADVKKPDKP [YMR273C 809-822]
373 | RPQIYSEPTRTKP [YPR122W 608-620]
555 | RHAFRITPQAERP [YLL057C 379-391]
359 | RPLIQKGPLYQKP [YDR104C 1028-1040]
116 | RGQSLEHPVTKKP [YGR165W 94-106]
224 | RNRASTLPSYPKP [YMR172W 515-527]
2820 | RPPPPPIPSTQKP [YNL094W 468-480]
104 | RLNDQDHPLQAKP [YHR159W 69-81]
1660 | RFLPKPKVVGPPKP [YHR089C 121-134]
159 | RFSSVKTNRTPSKP [YOR196C 186-199]
77.8 | RKSSDIGHIDPWRP [YOR156C 78-91]
344 | RNTTLTWPQLFKP [YOR144C 235-247]
412 | RLSSVSLSKRPERP [YKL185W 146-159]
112 | RNFYKKYTGLPKKP [YOL090W 17-30]
702 | RLPKALLPIGNRP [YOR260W 63-75]
97.1 | RLLLEFDEEYPNKP [YGL058W 54-67]
89.4 | RGNDESKNGTPPRP [YLR353W 192-205]
7670 | RIPVLPPPRSPNRP [YER158C 359-372]

normalised SPOT signal, Boehringer light units (BLU); mean over the file's lines of this peptide | Binder
196 | RIESRNEPLKTRP [YMR201C 33-45]
72.5 | REGQVLYDPEPFKP [YNL086W 58-71]
955 | RLLSTKKPMFDRP [YKL219W 373-385]
115 | RNTAQSGNLKPERP [YEL062W 541-554]
4080 | RPSQTLTPMGNKP [YGR097W 8-20]
71 | RPAGINDSPSPVKP [YGR092W 44-57]
42200 | RPGIPLKPMLAKP [YDL164C 386-398]
106 | RKKQKKKPTPTRP [YKL089W 337-349]
41 | RDYYLSFPESERP [YDR242W 430-442]
2960 | RMTDSVLVKSPQKP [YLR006C 664-677]
13.6 | REYEKEFPGSYKP [YIL085C 485-497]
3290 | RPTQVSRPLGGRP [YDR024W 78-90]
1050 | RKTWESIPPKFRP [YOR236W 58-70]
110 | RFKYSTNRGIPARP [YPL073C 76-89]
125 | RLSVKSSRRNPGKP [YGL041C 90-103]
168 | RGTSASHSPRPFRP [YLL029W 24-37]
1000 | RNIPPPPPPPPPKP [YMR089C 152-165]
188 | RLNAVKHPKILKP [YER081W 41-53]
92.4 | RIFPPIDDPLPFKP [YDR284C 245-258]
303 | RERLRANPTDKKP [YOR023C 518-530]
94.5 | RLTSEPNPDLIRP [YPR045C 202-214]
